Test results reported in paper PMC7213981, “Enhancer architecture sensitizes cell specific responses to Notch gene dose via a bind and discard mechanism”.

How the values were obtained:
RBPJ (CSL) [1] = target: T1, RBPJ (CSL) (mouse, UniProt P31266 53-474); test: EMSA; both probes in the same reaction; RBPJ 10-320 nM, no co-activators; additive, slightly lower affinity than 2xCSL; Native PAGE EMSA, LICOR Odyssey CLx imaging; equal amounts of both probes in one reaction; buffer, salt, pH and temperature not stated (as in Uhl 2010, 2016); conditions: protein: recombinant; label: 5' IRDye-800 on the complementary strand (primer S25)
T1 sequence (P31266 53-474): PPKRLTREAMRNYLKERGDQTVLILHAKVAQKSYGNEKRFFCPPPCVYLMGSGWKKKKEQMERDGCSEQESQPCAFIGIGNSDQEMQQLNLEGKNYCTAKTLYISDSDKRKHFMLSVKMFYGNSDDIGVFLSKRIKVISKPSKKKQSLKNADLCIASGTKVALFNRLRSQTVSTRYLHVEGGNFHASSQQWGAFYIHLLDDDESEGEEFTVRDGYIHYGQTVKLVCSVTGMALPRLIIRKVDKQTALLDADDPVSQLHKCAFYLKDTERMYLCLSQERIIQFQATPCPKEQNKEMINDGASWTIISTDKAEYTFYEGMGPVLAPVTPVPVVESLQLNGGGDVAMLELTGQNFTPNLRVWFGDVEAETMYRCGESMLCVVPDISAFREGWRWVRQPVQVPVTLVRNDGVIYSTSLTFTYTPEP

[2] = target: T2, Su(H);NICD;Mastermind (Mam) (Drosophila melanogaster;Drosophila …, UniProt P28159;P07207;P21519 98-523;1763-2412;87-307, ||); test: EMSA; both probes in the same reaction; 1 uM NICD/Mam; cooperative, less 2NCM complex than the mouse proteins; Native PAGE EMSA, LICOR Odyssey CLx imaging; equal amounts of both probes in one reaction; buffer, salt, pH and temperature not stated (as in Uhl 2010, 2016); conditions: protein: recombinant;recombinant;recombinant; copies: 1;1;1; label: 5' IRDye-800 on the complementary strand (primer S25)
T2 sequence (P28159 98-523, chain 1 of 3): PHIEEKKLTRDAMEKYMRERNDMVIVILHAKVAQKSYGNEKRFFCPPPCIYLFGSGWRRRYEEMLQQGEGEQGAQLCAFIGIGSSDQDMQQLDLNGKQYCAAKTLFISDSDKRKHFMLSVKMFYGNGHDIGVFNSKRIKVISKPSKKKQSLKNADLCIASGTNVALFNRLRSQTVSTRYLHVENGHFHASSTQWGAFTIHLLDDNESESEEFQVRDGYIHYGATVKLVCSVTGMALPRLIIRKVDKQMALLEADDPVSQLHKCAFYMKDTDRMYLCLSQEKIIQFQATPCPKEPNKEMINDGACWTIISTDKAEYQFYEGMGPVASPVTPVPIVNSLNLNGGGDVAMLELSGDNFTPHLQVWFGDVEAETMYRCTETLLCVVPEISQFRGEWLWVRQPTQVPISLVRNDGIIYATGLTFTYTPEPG
T2 sequence (P07207 1763-2412, chain 2 of 3): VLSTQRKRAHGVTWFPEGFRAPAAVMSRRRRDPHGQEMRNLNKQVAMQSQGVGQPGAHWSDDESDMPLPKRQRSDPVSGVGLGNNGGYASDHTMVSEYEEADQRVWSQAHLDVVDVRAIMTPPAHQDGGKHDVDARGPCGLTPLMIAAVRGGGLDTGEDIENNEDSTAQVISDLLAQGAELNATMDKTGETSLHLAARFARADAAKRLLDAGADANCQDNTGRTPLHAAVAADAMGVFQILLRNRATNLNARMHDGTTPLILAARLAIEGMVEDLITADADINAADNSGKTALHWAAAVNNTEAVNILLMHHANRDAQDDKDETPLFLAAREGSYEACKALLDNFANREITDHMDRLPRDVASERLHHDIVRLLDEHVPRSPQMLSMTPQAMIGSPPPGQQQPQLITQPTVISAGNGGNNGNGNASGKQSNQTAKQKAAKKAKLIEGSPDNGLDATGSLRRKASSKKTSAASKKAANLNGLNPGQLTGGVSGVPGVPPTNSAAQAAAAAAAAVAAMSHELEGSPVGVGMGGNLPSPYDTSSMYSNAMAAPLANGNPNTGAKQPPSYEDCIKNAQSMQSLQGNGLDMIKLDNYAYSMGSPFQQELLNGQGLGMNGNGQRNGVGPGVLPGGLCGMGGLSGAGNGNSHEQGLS
T2 sequence (P21519 87-307, chain 3 of 3): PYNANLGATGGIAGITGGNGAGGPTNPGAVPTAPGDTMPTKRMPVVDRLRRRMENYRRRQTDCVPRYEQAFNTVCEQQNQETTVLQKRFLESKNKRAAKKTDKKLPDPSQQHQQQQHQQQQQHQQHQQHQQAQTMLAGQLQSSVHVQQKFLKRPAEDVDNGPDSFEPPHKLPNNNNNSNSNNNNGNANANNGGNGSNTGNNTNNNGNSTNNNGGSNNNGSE

Su(H) [3] = target: T3, Su(H) (Drosophila melanogaster, UniProt P28159 98-523); test: EMSA; both probes in the same reaction; Su(H) 10-320 nM, no co-activators; additive, slightly lower affinity than 2xCSL; Native PAGE EMSA, LICOR Odyssey CLx imaging; equal amounts of both probes in one reaction; buffer, salt, pH and temperature not stated (as in Uhl 2010, 2016); conditions: protein: recombinant; label: 5' IRDye-800 on the complementary strand (primer S25)
T3 sequence (P28159 98-523): as the sequence (P28159 98-523, chain 1 of 3) above

RBPJ (CSL);N1ICD;MAML1 [4] = target: T4, RBPJ (CSL);N1ICD;MAML1 (mouse;mouse;human, UniProt P31266;Q01705;Q92585 53-474;1744-2113;1-280, ||); test: EMSA; both probes in the same reaction; 1 uM NICD/MAML; cooperative, both sites preferentially filled; Native PAGE EMSA, LICOR Odyssey CLx imaging; equal amounts of both probes in one reaction; buffer, salt, pH and temperature not stated (as in Uhl 2010, 2016); conditions: protein: recombinant;recombinant;recombinant; copies: 1;1;1; label: 5' IRDye-800 on the complementary strand (primer S25)
T4 sequence (P31266 53-474, chain 1 of 3): as the sequence (P31266 53-474) above
T4 sequence (Q01705 1744-2113, chain 2 of 3): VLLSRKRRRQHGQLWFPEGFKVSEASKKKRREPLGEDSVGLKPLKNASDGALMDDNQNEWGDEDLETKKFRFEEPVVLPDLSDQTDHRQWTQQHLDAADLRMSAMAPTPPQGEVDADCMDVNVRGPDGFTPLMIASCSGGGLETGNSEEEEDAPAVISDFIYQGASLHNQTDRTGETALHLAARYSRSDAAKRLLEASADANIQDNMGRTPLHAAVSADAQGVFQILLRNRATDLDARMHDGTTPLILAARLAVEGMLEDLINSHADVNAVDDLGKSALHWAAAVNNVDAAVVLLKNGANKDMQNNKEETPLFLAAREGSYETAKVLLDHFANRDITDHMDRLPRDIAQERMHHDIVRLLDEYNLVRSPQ
T4 sequence (Q92585 1-280, chain 3 of 3): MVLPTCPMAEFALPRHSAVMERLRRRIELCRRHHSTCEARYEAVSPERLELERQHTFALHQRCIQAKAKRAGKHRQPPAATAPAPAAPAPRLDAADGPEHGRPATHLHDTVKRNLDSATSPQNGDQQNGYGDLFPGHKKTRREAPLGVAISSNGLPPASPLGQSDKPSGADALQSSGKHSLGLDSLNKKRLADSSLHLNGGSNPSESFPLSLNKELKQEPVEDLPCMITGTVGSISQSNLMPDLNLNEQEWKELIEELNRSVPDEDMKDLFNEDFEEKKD

Su(H) [5] = target: T3, Su(H); test: EMSA; both probes in the same reaction; Su(H) 10-320 nM, no co-activators; additive, slightly higher affinity than 1xSPS; Native PAGE EMSA, LICOR Odyssey CLx imaging; equal amounts of both probes in one reaction; buffer, salt, pH and temperature not stated (as in Uhl 2010, 2016); conditions: protein: recombinant; label: 5' IRDye-700 on the complementary strand (primer S25)
[6] = target: T2, Su(H);NICD;Mastermind (Mam); test: EMSA; both probes in the same reaction; 1 uM NICD/Mam; additive, not cooperative, less preferred than 1xSPS; Native PAGE EMSA, LICOR Odyssey CLx imaging; equal amounts of both probes in one reaction; buffer, salt, pH and temperature not stated (as in Uhl 2010, 2016); conditions: protein: recombinant;recombinant;recombinant; copies: 1;1;1; label: 5' IRDye-700 on the complementary strand (primer S25)
RBPJ (CSL) [7] = target: T1, RBPJ (CSL); test: EMSA; both probes in the same reaction; RBPJ 10-320 nM, no co-activators; additive, slightly higher affinity than 1xSPS; Native PAGE EMSA, LICOR Odyssey CLx imaging; equal amounts of both probes in one reaction; buffer, salt, pH and temperature not stated (as in Uhl 2010, 2016); conditions: protein: recombinant; label: 5' IRDye-700 on the complementary strand (primer S25)
RBPJ (CSL);N1ICD;MAML1 [8] = target: T4, RBPJ (CSL);N1ICD;MAML1; test: EMSA; both probes in the same reaction; 1 uM NICD/MAML; additive, not cooperative, less preferred than 1xSPS; Native PAGE EMSA, LICOR Odyssey CLx imaging; equal amounts of both probes in one reaction; buffer, salt, pH and temperature not stated (as in Uhl 2010, 2016); conditions: protein: recombinant;recombinant;recombinant; copies: 1;1;1; label: 5' IRDye-700 on the complementary strand (primer S25)

Measured: binding result

B1: 1xSPS EMSA probe (dsDNA)
DNA 1: GCTACGTGGGAAAGGAGCAAACTGCGTTTCCCACGTTCGTAGTGCGGGCGTGGCT
DNA 2: AGCCACGCCCGCACTACGAACGTGGGAAACGCAGTTTGCTCCTTTCCCACGTAGC
binds: RBPJ (CSL) [1] | [2] | Su(H) [3] | RBPJ (CSL);N1ICD;MAML1 [4]

B2: 2xCSL EMSA probe (dsDNA)
DNA 1: CGAACGTGGGAAACCTAGGCTAGAGGCACCGTGGGAAACTAGTGCGGGCGTGGCT
DNA 2: AGCCACGCCCGCACTAGTTTCCCACGGTGCCTCTAGCCTAGGTTTCCCACGTTCG
binds: Su(H) [5] | [6] | RBPJ (CSL) [7] | RBPJ (CSL);N1ICD;MAML1 [8]
